Source: patent US20200181261A1
pKd: −log10 of the molar value.

Legend:
[1] = molecular target: human CEACAM6, full-length, on cells (human) (UniProt P40199); experiment: FACS, transfected HeLa cells
[2] = molecular target: human CEACAM6, full-length, on cells (human) (UniProt P40199); experiment: FACS, 5 µg/ml, HPAC cells
[3] = molecular target: human CEACAM6, full-length, on cells (human) (UniProt P40199); experiment: FACS, 5 µg/ml, MDA-MB-361 cells
[4] = molecular target: human CEACAM6, full-length, on cells (human) (UniProt P40199); experiment: FACS, 5 µg/ml, AsPC-1 cells
[5] = molecular target: human CEACAM6, full-length, on cells (human) (UniProt P40199); experiment: FACS, 5 µg/ml, HT55 cells
[6] = molecular target: human CEACAM6, full-length, on cells (human) (UniProt P40199); experiment: FACS, 5 µg/ml, KM-12 cells
[7] = molecular target: human CEACAM6, full-length, on cells (human) (UniProt P40199); experiment: FACS, 5 µg/ml, MCF7/AdrVp cells
[8] = molecular target: human CEACAM6, full-length, on cells (human) (UniProt P40199); experiment: FACS, 5 µg/ml, NCI-H2228 cells
[9] = molecular target: human CEACAM6, full-length, on cells (human) (UniProt P40199); experiment: FACS, 5 µg/ml, RPMI-8226 cells
[10] = molecular target: human CEACAM6, full-length, on cells (human) (UniProt P40199); experiment: FACS, 5 µg/ml, HCC-2935 cells
[11] = molecular target: human CEACAM6, full-length, on cells (human) (UniProt P40199); experiment: FACS, 5 µg/ml, CL-34 cells
[12] = molecular target: human CEACAM6, full-length, on cells (human) (UniProt P40199); experiment: FACS, 5 µg/ml, BxPc3 cells
[13] = molecular target: human CEACAM6, full-length, on cells (human) (UniProt P40199); experiment: FACS, 5 µg/ml, HT29 cells
[14] = molecular target: human CEACAM6, full-length, on cells (human) (UniProt P40199); experiment: FACS, 5 µg/ml, HCC827 cells
[15] = molecular target: human CEACAM6, full-length, on cells (human) (UniProt P40199); experiment: FACS, 5 µg/ml, HCC2998 cells
[16] = molecular target: human CEACAM6, full-length, on cells (human) (UniProt P40199); experiment: FACS, 5 µg/ml, SNU-1 cells
[17] = molecular target: human CEACAM6, full-length, on cells (human) (UniProt P40199); experiment: FACS, 5 µg/ml, NCI-H1688 cells
[18] = molecular target: human CEACAM6, full-length, on cells (human) (UniProt P40199); experiment: FACS, 5 µg/ml, SNU-C1 cells
[19] = molecular target: human CEACAM6, full-length, on cells (human) (UniProt P40199); experiment: FACS, 5 µg/ml, NCI-H1993 cells
[20] = molecular target: human CEACAM6, full-length, on cells (human) (UniProt P40199); experiment: FACS, 5 µg/ml, KS cells
[21] = molecular target: human CEACAM6, full-length, on cells (human) (UniProt P40199); experiment: FACS, 5 µg/ml, T-47D cells
[22] = molecular target: human CEACAM6, full-length, on cells (human) (UniProt P40199); experiment: FACS, 5 µg/ml, NCI-H441 cells
[23] = molecular target: human CEACAM6, extracellular (mature form), R&D Systems 3934-CM (human) (UniProt P40199); experiment: SPR, antibody captured, antigen as analyte
Sequence of human CEACAM6, extracellular (mature form), R&D Systems 3934-CM (human) (P40199 other isoform, or with tags, fused parts or gaps limits assumed): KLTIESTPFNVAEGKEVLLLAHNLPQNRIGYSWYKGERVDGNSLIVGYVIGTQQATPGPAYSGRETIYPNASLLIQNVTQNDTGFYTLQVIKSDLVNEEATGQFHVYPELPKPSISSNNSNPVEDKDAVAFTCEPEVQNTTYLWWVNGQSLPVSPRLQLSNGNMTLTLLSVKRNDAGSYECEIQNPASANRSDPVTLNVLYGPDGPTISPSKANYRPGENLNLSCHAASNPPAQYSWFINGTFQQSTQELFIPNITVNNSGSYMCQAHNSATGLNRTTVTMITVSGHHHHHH

[24] = molecular target: human CEACAM6, full-length, on cells (human) (UniProt P40199); experiment: FACS, 5 µg/ml, ZR-75-1 cells
[25] = molecular target: human CEACAM6, full-length, on cells (human) (UniProt P40199); experiment: FACS, 5 µg/ml, SW1116 cells
[26] = molecular target: human CEACAM6, full-length, on cells (human) (UniProt P40199); experiment: FACS, 5 µg/ml, DAN-G cells
[27] = molecular target: human CEACAM6, full-length, on cells (human) (UniProt P40199); experiment: FACS, 5 µg/ml, Calu-3 cells
[28] = molecular target: human CEACAM6, full-length, on cells (human) (UniProt P40199); experiment: FACS, 5 µg/ml, A549 cells
[29] = molecular target: human CEACAM6, full-length, on cells (human) (UniProt P40199); experiment: FACS, 5 µg/ml, NCI-H1437 cells
[30] = molecular target: human CEACAM6, full-length, on cells (human) (UniProt P40199); experiment: FACS, 5 µg/ml, MCF7 cells
[31] = molecular target: human CEACAM6, full-length, on cells (human) (UniProt P40199); experiment: FACS, 5 µg/ml, BT-474 cells
[32] = molecular target: human CEACAM6, full-length, on cells (human) (UniProt P40199); experiment: FACS, 5 µg/ml, WiDr cells
[33] = molecular target: human CEACAM6, full-length, on cells (human) (UniProt P40199); experiment: FACS, 5 µg/ml, HPAFII cells
[34] = molecular target: human CEACAM6, full-length, on cells (human) (UniProt P40199); experiment: FACS, 5 µg/ml, LoVo cells

Sequence of human CEACAM6, full-length, on cells (human) (P40199 35-320 V239G): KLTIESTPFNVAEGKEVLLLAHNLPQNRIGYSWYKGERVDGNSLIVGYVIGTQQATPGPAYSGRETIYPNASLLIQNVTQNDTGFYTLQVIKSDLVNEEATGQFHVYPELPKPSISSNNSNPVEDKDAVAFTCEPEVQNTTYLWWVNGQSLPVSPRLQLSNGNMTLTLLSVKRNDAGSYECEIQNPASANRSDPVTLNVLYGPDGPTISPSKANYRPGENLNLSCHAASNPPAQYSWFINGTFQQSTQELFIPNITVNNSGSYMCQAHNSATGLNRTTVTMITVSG

FACS median fluorescence (medianfluorescence) [1]: 1000 to 10000
FACS median fluorescence (medianfluorescence) [2]: > 10000
FACS median fluorescence (medianfluorescence) [3]: 1000 to 10000
FACS median fluorescence (medianfluorescence) [4]: 1000 to 10000
FACS median fluorescence (medianfluorescence) [5]: 1000 to 10000
FACS median fluorescence (medianfluorescence) [6]: 100 to 1000
FACS median fluorescence (medianfluorescence) [7]: 10 to 100
FACS median fluorescence (medianfluorescence) [8]: 100 to 1000
FACS median fluorescence (medianfluorescence) [9]: 10 to 100
FACS median fluorescence (medianfluorescence) [10]: > 10000
FACS median fluorescence (medianfluorescence) [11]: 10 to 100
FACS median fluorescence (medianfluorescence) [12]: 1000 to 10000
FACS median fluorescence (medianfluorescence) [13]: 100 to 1000
FACS median fluorescence (medianfluorescence) [14]: 100 to 1000
FACS median fluorescence (medianfluorescence) [15]: 100 to 1000
FACS median fluorescence (medianfluorescence) [16]: 1000 to 10000
FACS median fluorescence (medianfluorescence) [17]: 10 to 100
FACS median fluorescence (medianfluorescence) [18]: 100 to 1000
FACS median fluorescence (medianfluorescence) [19]: 1000 to 10000
FACS median fluorescence (medianfluorescence) [20]: 1000 to 10000
FACS median fluorescence (medianfluorescence) [21]: 10 to 100
FACS median fluorescence (medianfluorescence) [22]: 100 to 1000
pKd [23]: 7.66
FACS median fluorescence (medianfluorescence) [24]: 100 to 1000
FACS median fluorescence (medianfluorescence) [25]: 1000 to 10000
FACS median fluorescence (medianfluorescence) [26]: 10 to 100
FACS median fluorescence (medianfluorescence) [27]: 10 to 100
FACS median fluorescence (medianfluorescence) [28]: 1000 to 10000
FACS median fluorescence (medianfluorescence) [29]: 1000 to 10000
FACS median fluorescence (medianfluorescence) [30]: 10 to 100
FACS median fluorescence (medianfluorescence) [31]: 1000 to 10000
FACS median fluorescence (medianfluorescence) [32]: 100 to 1000
FACS median fluorescence (medianfluorescence) [33]: 1000 to 10000
FACS median fluorescence (medianfluorescence) [34]: 100 to 1000
Substance: 9A6 (mouse IgG1) (antibody)
